The results in this text go back to publication PMC4351158 (Structure (London, England : 1993), 2015).

Where no end group is shown, it is not given here. fluorescein = fluorescein, a fluorescent label on the peptide N-terminus

Holding throughout (assay): fluorescence polarisation
In assay [1] the target is T1, DegS Q191A (E. coli, UniProt P0AEE3 27-355, Q191A).
T1 sequence (looked up): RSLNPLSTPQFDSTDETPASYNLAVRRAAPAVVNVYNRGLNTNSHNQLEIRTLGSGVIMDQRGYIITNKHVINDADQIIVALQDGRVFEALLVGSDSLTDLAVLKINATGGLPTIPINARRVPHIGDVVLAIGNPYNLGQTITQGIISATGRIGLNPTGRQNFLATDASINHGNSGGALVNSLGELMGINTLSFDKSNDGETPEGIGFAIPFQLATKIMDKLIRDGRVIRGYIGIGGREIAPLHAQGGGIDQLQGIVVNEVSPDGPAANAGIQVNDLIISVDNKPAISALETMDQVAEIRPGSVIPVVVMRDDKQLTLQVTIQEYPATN

The target of assay [2] is T2, DegS Q187A (E. coli, UniProt P0AEE3 27-355, Q187A).
T2 sequence (looked up): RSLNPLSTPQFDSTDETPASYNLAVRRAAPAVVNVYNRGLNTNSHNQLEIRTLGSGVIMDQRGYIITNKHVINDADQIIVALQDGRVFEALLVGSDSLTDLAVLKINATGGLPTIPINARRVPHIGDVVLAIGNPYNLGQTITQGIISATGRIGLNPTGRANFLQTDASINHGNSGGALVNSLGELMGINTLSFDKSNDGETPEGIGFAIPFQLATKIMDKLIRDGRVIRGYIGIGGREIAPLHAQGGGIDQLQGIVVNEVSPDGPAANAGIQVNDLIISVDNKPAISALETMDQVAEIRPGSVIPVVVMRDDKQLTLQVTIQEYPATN

In assay [3] the target is T3, DegS H198P/P229A (E. coli, UniProt P0AEE3 27-355, H198P | P229A).
T3 sequence (looked up): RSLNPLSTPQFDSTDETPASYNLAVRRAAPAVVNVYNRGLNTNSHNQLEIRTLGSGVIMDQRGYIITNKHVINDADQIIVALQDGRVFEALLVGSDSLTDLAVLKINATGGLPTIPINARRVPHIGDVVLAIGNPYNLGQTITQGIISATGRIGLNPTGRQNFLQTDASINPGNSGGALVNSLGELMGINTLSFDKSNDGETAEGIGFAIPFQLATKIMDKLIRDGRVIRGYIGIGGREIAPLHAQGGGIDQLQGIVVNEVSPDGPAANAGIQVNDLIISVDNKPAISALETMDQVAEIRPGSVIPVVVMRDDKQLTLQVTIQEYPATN

Assay [4] deals with T4, DegS H198P/E230A (E. coli, UniProt P0AEE3 27-355, H198P | E230A).
T4 sequence (looked up): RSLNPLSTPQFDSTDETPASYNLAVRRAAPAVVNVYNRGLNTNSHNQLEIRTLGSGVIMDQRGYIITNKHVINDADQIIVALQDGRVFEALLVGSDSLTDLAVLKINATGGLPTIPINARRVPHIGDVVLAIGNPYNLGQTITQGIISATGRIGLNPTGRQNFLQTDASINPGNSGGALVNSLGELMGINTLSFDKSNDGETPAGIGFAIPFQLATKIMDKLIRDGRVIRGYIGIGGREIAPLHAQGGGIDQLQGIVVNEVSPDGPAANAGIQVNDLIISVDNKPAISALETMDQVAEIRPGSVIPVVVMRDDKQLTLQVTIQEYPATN

Assay [5] concerns the target T5, DegS I179A (E. coli, UniProt P0AEE3 27-355, I179A).
T5 sequence (looked up): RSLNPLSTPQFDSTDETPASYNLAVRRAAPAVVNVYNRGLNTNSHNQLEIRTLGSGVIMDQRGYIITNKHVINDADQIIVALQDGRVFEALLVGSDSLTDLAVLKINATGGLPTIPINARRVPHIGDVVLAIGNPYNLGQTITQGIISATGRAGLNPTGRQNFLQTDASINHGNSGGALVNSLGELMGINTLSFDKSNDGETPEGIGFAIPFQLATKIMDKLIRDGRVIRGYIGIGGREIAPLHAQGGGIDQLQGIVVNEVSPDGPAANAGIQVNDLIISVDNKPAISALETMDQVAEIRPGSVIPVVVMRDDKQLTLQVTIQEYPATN

Assay [6] concerns the target T6, DegS T167V/H198P (E. coli, UniProt P0AEE3 27-355, T167V | H198P).
T6 sequence (looked up): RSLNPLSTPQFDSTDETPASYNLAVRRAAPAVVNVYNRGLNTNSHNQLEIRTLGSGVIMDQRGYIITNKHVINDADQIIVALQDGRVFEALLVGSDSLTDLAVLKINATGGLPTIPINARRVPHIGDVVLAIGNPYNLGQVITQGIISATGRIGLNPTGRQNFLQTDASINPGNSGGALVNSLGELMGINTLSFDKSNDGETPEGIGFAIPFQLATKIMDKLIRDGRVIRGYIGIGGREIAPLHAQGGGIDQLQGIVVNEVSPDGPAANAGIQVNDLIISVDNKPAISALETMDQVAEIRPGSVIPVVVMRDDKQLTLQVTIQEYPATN

Consider fluorescein-DNRDGNVYYF [fluorescent OMP peptide fluorescein-DNRDGNVYYF], for which the Kd in assay [1] is 3400 ± 1300 nM; in assay [2], 2300 ± 100 nM; in assay [3] it was 2000 ± 100 nM; in assay [4], 1800 ± 400 nM; in assay [5], 2300 ± 400 nM; in assay [6] it was 1900 ± 700 nM.
